In doi:10.1101/2021.03.17.435802 (bioRxiv, 2021):

Biological target: SARS-CoV-2 S1 WT (in-house) (SARS-CoV-2, UniProt P0DTC2)
Assay: SPR

B1: REGN10987 (antibody, V domains shown)
VH: QVQLVESGGGVVQPGRSLRLSCAASGFTFSNYAMYWVRQAPGKGLEWVAVISYDGSNKYYADSVKGRFTISRDNSKNTLYLQMNSLRTEDTAVYYCASGSDYGDYLLVYWGQGTLVTVSS
VL: QSALTQPASVSGSPGQSITISCTGTSSDVGGYNYVSWYQQHPGKAPKLMIYDVSKRPSGVSNRFSGSKSGNTASLTISGLQSEDEADYYCNSLTSISTWVFGGGTKLTVL
B1: binds.
